Experimental data as given in article PMC1919509 (Nucleic Acids Research, 2007).

Molecular target: Single-stranded DNA binding protein (SSB), over-expressed recombinant (E. coli, UniProt P0AGE0 1-178)
Assay: cross-linking

Chain of Single-stranded DNA binding protein (SSB), over-expressed recombinant (P0AGE0 whole entry): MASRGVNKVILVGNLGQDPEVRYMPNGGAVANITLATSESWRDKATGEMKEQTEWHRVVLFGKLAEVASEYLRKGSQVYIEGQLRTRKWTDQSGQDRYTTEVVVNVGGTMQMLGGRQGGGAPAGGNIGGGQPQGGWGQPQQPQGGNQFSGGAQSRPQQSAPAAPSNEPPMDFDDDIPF

- stoichiometry N: 2 ExoIX molecules per SSB tetramer
B1: Exonuclease IX (ExoIX), native recombinant (natural protein, E. coli, UniProt P38506 1-251, looked up)
chain: MAVHLLIVDALNLIRRIHAVQGSPCVETCQHALDQLIMHSQPTHAVAVFDDENRSSGWRHQRLPDYKAGRPPMPEELHDEMPALRAAFEQRGVPCWSTSGNEADDLAATLAVKVTQAGHQATIVSTDKGYCQLLSPTLRIRDYFQKRWLDAPFIDKEFGVQPQQLPDYWGLAGISSSKVPGVAGIGPKSATQLLVEFQSLEGIYENLDAVAEKWRKKLETHKEMAFLCRDIARLQTDLHIDGNLQQLRLVR
